Laboratory results published in paper PMC5234079, “Structural basis of human PCNA sliding on DNA”.

What was measured:
[1] = target: Human PCNA (proliferating cell nuclear antigen) (human); assay: crystal structure; co-crystal of PCNA with a 10 bp dsDNA, hanging drop, 20 °C, 11% PEG 3350, 0.1 M sodium acetate pH 4.5; space group H3, 2.8 Å
[2] = target: PCNA (human, UniProt P12004 1-261); assay: NMR; 1H-15N TROSY titration, T73 CSP, single-site model; text gives ~0.7 mM; NMR: 100 uM PCNA, 20 mM sodium phosphate, 50 mM NaCl, pH 7.0, 20 uM DSS, 0.01% NaN3, 5% 2H2O, 35 C; details: protein: recombinant; tags: N-terminal His6 and PreScission site, cleaved; residual GPH- at N terminus; chain copies: 3; blunt
Sequence of PCNA (P12004 whole entry): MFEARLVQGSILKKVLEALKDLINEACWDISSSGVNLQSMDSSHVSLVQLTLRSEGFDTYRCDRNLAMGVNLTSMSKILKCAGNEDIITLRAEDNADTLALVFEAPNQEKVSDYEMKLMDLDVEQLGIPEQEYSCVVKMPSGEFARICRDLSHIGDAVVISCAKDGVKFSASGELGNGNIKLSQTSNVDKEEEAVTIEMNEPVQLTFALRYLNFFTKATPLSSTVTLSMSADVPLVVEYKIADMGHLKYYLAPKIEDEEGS

stoichiometry N [1]	Molecule	Kd [2]
3	Human PCNA (proliferating cell nuclear antigen) (natural protein)	–
–	10 bp dsDNA (dsDNA) DNA 1: ATACGATGGG DNA 2: CCCATCGTAT	700 ± 100 µM
